Starred links: 1 amine or outer side, 2 acyl side, 3 side chain; linkers in the order of their positions; H or OH if unused. Non-standard residues stand in square brackets, D forms with d. Residues, ends and D or L forms follow the SMILES beside them. *: point of attachment. Doxorubicin(3'-N) = COc1cccc2c1C(=O)c1c(O)c3c(c(O)c1C2=O)C[C@@](O)(C(=O)CO)C[C@@H]3O[C@H]1C[C@H](N*)[C@H](O)[C@H](C)O1; PABC = O=C(OCc1ccc(N[*:1])cc1)[*:2]
Experiments:
[1] = tested on: MCF7 breast carcinoma cells; assay: Cellular accumulation of doxorubicin and Ac-DEVD-PABC-doxorubicin (fluorescence); format: cell-based, human; settings: 10 μM, 0 to 2 h at 37° C.
Procedure: (§1) FIG. 1. Cellular accumulation of caspase cleavable prodrug Ac-DEVD-PABC-Doxorubicin in SK-BR-3 and MCF7 cells. Uptake of doxorubicin was estimated from a standard curve prepared using known quantities of doxorubicin that were added to the previously untreated cells.
(§2) SK-BR-3 and MCF7 breast carcinoma cells (American Type Culture Collection (ATCC), Rockville, Md.) were cultured in Dulbecco's modified Eagle's medium:Ham's nutrient F-12 (50:50) supplemented with […] glutamine, 100 units/mL penicillin, […] streptomycin (Gibco BRL, Grand Island, N.Y.), and 10% (w/v) bovine fetal serum (Hyclone, Logan, Utah) (cell media) at 37° C., 5% CO2. Adherantly growing cells were detached by treatment with phosphate-buffered saline containing 0.05% trypsin, 0.6 mM EDTA (5 min) and then resuspended at 10^6 cells per mL in fresh cell media. Cells were either used directly (“untreated”) or supplemented with doxorubicin or Ac-DEVD-PABC-doxorubicin into a final concentration of 10 μM. […] Fluorescence measurements were then undertaken using a fluorescent plate reader (Fluoroskan, Helsinki, Finland) with absorption and emission wavelengths of 485 and 590 nm respectively. Uptake of doxorubicin was estimated from a standard curve prepared using known quantities of doxorubicin that were added to the previously untreated cells.

[2] = tested on: SK-BR-3 breast carcinoma cells; assay: as above; format: cell-based, human; settings: SK-BR-3 cells, 10 μM, 0 to 2 h at 37° C.
Procedure: as §1, §2

[3] = biological target: T1, recombinant human caspase 3 (Homo sapiens, UniProt P42574); assay: Activation of Ac-DEVD-PABC-taxol by caspase 3 (HPLC); format: biochemical
T1 construct: purchased Calbiochem
T1 sequence (P42574 29-175 limits assumed): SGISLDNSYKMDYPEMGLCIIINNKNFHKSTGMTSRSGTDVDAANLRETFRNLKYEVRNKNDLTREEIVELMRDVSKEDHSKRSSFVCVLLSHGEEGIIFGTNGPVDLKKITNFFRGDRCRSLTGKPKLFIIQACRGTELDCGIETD
T1 sequence (P42574 176-277 limits assumed): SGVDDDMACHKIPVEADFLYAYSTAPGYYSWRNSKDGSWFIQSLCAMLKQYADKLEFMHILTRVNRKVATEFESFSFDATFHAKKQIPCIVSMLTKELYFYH
Procedure: Ac-DEVD-PABC-taxol (35 μM) was incubated with 1 ng recombinant human caspase 3 (Calbiochem) in the presence or absence of the caspase 3 inhibitor, Z-DEVD-FMK (400 μM) (Calbiochem) in phosphate-buffered saline containing 5% (v/v) dimethyl sulfoxide and 45 mM DTT in a total reaction volume of 700 μL. A control reaction was performed in which caspase 3 and inhibitor were omitted. Reactions were incubated for 0 to 2 h at 37° C. and then frozen in dry ice. Reactions were then analyzed by reverse phase HPLC using a Microsorb-MV C18 reverse-phase column (4.6 mm internal diameter×250 mm length, 5 μm particle size, 100 Å pore size) (Rainin) under isocratic conditions. 0.1% (v/v) TFA, 46% (v/v) acetonitrile at a now rate of 1.5 mL/min whilst monitoring the absorbance at 254 nm. The retention times for taxol and Ac-DEVD-PABC-taxol were 13.3 min 10.4 min, respectively.

granzyme B = granzyme B (Homo sapiens, UniProt P10144); assay: Cleavage of Ac-DEVD-pna by granzyme B; format: biochemical
Sequence of granzyme B (P10144 21-247, species assumed): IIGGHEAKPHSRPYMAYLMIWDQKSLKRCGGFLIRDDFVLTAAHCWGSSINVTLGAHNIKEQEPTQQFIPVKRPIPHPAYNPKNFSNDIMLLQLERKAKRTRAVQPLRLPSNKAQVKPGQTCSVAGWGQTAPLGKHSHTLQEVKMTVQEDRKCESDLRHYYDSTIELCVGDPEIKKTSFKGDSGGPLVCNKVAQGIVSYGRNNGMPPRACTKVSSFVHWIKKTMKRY
Excerpt: (§3) The most favorable substrates for caspases 2, 3 and 7 are DEHD (SEQ ID NO:8), DEVD (SEQ ID NO:3) and DEVD (SEQ ID NO:3) respectively. These sequences are very poor substrates for granzyme B which has the preferred substrate IEPD (SEQ ID NO:13) (Thornberry et al., (1997) supra) and for proinflammatory caspases (caspases 1, 4, 5, 11, 12, 13) which have a preference for a large hydrophobic residue at S4 (caspase 1 WEHD (SEQ ID NO:6), caspase 4 (W/L)EHD, caspase 5 (W/L)EHD).

[4] = biological target: T2, recombinant commercial caspase 3 (Homo sapiens, UniProt P42574); assay: Hydrolysis of Ac-DEVD-pna by caspase 3; format: biochemical
T2 construct: purchased
T2 sequence (P42574 29-175 limits assumed): T1 sequence (P42574 29-175 limits assumed)
T2 sequence (P42574 176-277 limits assumed): T1 sequence (P42574 176-277 limits assumed)
Excerpt: as §3

COc1cccc2c1C(=O)c1c(O)c3c(c(O)c1C2=O)C[C@@](O)(C(=O)CO)C[C@@H]3O[C@H]1C[C@H](NC(=O)OCc2ccc(NC(=O)[C@H](CC(=O)O)NC(=O)[C@@H](NC(=O)[C@H](CCC(=O)O)NC(=O)[C@H](CC(=O)O)NC(C)=O)C(C)C)cc2)[C@H](O)[C@H](C)O1 [Ac-DEVD-PABC-Doxorubicin, Ac-DEVD-PABC-doxorubicin] (Ac-DEVD[PABC]-{Doxorubicin(3'-N)})
accumulation inside cells [1]: did not | accumulation inside cells [2]: did not

Ac-DEVD-PABC-paclitaxel [Ac-DEVD-PABC-taxol]
activation by caspase 3 (conversion to taxol) ([3]; 35 μM prodrug, 1 ng caspase 3): efficiently activated | Conversion (%) ([3]; Caspase 3 + inhibitor (Z-DEVD-FMK 400 μM), incubation time 0 min): 0% | Conversion (%) ([3]; Caspase 3 + inhibitor (Z-DEVD-FMK 400 μM), incubation time 30 min): 0% | Conversion (%) ([3]; Caspase 3 + inhibitor (Z-DEVD-FMK 400 μM), incubation time 120 min): 0% | Conversion (%) ([3]; Caspase 3, incubation time 0 min): 0% | Conversion (%) ([3]; Caspase 3, incubation time 30 min): 65% | Conversion (%) ([3]; Caspase 3, incubation time 120 min): 100%

acetyl-L-Asp-L-Glu-L-Val-L-Asp-p-nitroanilide [Ac-DEVD-pna]
cleavage by granzyme B (granzyme B): no detectable cleavage | hydrolysis by caspase 3 [4]: readily hydrolyzed
